Assay: yeast display, Sf9 membrane polyspecificity reagent, FACS + sequencing; frameworks hold sequencing errors
In short: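 Synthetic nanobody libraries on Saccharomyces cerevisiae BJ5465 were galactose-induced for 36–48 hours, stained 1 hour at 4 °C with 10% biotinylated, detergent-solubilized Sf9 membrane reagent and enriched on streptavidin microbeads. FACS then separated cells into low and high (top ~1%) gates by anti-HA (expression) and streptavidin (reagent binding) fluorescence. Genes were colony-PCR amplified, MiSeq 2 × 250 sequenced and CDR-length filtered. A clone's polyreactivity label is that of its gate of origin.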

Sequence | polyreactivity (PSR sort gate)
QVQLVESGGGLDQAGGSLRLSCAASGGIFSVYAMGWYRQAPGKEREFVAAISKSGGRTYYADSVKGRFTISRDTAKKTVYLQMNCLKQVDTAVYYCNADVYPYYRKPWMDYWGQGSQVTVSS | low polyreactivity
QVQLVESGGGLDQAGGSLRLSCAASGIIFAANAMGWSRQAPGKERELVAAISKNGGITYYADSVQGRFTISRDNAKNTVDLQRNSLKPEDTAVYYCAARWRQTRSYYYWGQGTQVNVSS | high polyreactivity
QVQLVESGGGLDQAGGSLRLSCAASGIIFGVNVMGWYRQAPGKERELVATITWRGDSTYYADSVKGRFTISRDNAKNTVYLQMNSLKPEDTAVYYCARGARTGVREDDYWGQGTQVTLSS | low polyreactivity
QVQLVESGGGLDQAGGSLRLSCAASGIIFKYYAMGWYRQAPGKERELVAAINYSGGRTYYADSVKGRFTISRDNAKNTVYLQMNSLKPEDTAVYYCAKVPAYADRGKFDYWGQGTQVTVSS | high polyreactivity
QVQLVESGGGLDQAGGSLRLSCAASGITFFNYAMGWYRQAPGKEREFVAGIDSSGGSTSYADSVKGRFTISRDNAKNTVYLQMNSLKPEDTAVYYCAADRTGSHFDYWGQGTQVTVSS | low polyreactivity
QVQLVESGGGLDQAGGSLRLSCAASGITFYGYTMGLYRQAPGKERELVATITRGGSTYYADSVKGRFTISRDNAKNTVYLQMNSLKPEDTAVYYCAAESQYDYGVEYDYWVQGTQVTVSS | low polyreactivity
QVQLVESGGGLDQAGGSLRLSCAASGLIFRPYDMGWYSQAPGKERELVAAISNGDSTNYADSVKGRFTISRDNAKNTDYLEMNSLKPEDTAVYYCNAAIPSWLEYEYWGQGTQVTVSS | low polyreactivity
QVQLVESGGGLDQAGGSLRLSCAASGLISYRNAMGWYRQAPGKERELVAAISSDGSTYYADSVKGRFTISRDNAKNSVYLQMNSLKPEDTAVYYCNADVFRKFGSPSAYKSHRYDYWGQGTQVTVSS | low polyreactivity
QVQLVESGGGLDQAGGSLRLSCAASGLTFAYYTMGWSRQEPGKERELVADISRSGGSTYYADSVKGRFTISRDNAKNTVYLQMNSLKPEDTAVYYCAAYRYGSRYGYEYWGQGTQVTVSS | high polyreactivity
QVQLVESGGGLDQAGGSLRLSCAASGLTFGTYPMGWYRQAPGKETELVAAIRSGGSTNYADSVKGRFTISRDNAKNTVYLQMNSLKPEDTAVYYCNSVTVYYRKYEFWGQGTQVTVSS | high polyreactivity
QVQLVESGGGLDQAGGSLRLSCAASGLTFQLYTMGWYRQAHGKERELVAAISRSGTRTYYADSVKGRFTISLDNAKNTVYLQMNSLKPEDTAVYYCAARTDGYRNNYWGQGTQVTVSS | high polyreactivity
QVQLVESGGGLDQAGGSLRLSCAASGNTFHPYAMGWYRQAPGKERELVAAITKSGGSTYYADSVKGRFTISRDNAKKTVYLQMNSLKPEDTAVYYCNADDGVTEYDYWGQGTQVTVSS | low polyreactivity
QVQLVESGGGLDQAGGSLRLSCAASGRIFCQYAMGWYRQAPGKERELVAAMSRSGGSTYYAHSVKGRFTISRDNAKNTVYLQMTSLKPEDTAVYYCAARKASGDPGSAGRPEYYYWGQGNQVTVSS | high polyreactivity
QVQLVESGGGLDQAGGSLRLSCAASGRIIRFYAMAWYRQAPGKERELVAAISSRGGSTYYADSVKGRFTISRDNAKNTVYLQKNSLKPEDTAVYYCAKKTWRDYAYNYWGQGTQVTVSS | high polyreactivity
QVQLVESGGGLDQAGGSLRLSCAASGRISGYYDMVWYRQAPGKERELVATITSDGGTNYADSVKGRFTISRDNAKNCVYLQINSLKPEDTAVYYCAAYGWYTKWHFAYGYWGQGTQVTVSS | low polyreactivity
QVQLVESGGGLDQAGGSLRLSCAASGRTFNPYVLGWYRQAPGKERELVAVITSSGDSTYYADSVKGRFTISRDNAKNTVYLQMNSLKPEDTAVYYCNADYLYYDYDYWGQGTQVTVSS | high polyreactivity

Sequence | polyreactivity (PSR sort gate)
QVQLVESGGGLDQAGGSLRLSCAASGRTFTGNAMGWYRQAPGKERELVAAISSRGSSTYYADSVKGRFTISRDNAKNTVYLQMNSLKPEDTAVYYCAAVWPRPKYVYESDYWGQGTQVTVSS | high polyreactivity
QVQLVESGGGLDQAGGSLRLSCAASGRTFYRNVMGWYRQAHGKERELVAAISSRGGSTYYADSVKGRFTISRDNAKNTVYLQMNSLKPEDTAVYYCAAYYYRRRYGGKYDYWGQGTQVTVSS | high polyreactivity
QVQLVESGGGLDQAGGSLRLSCAASGSIFDANAMVWYRQAPGKERELVAAITSSGGITYYADSVKGRFTISRDNAKNTVYLHLNSLKPADTAVYYCAAEYGYIDYSYLYWYDYWGQGTQVTVSS | high polyreactivity
QVQLVESGGGLDQAGGSLRLSCAASGSIFEPNAMVWYRQAPGKERELVAAITGGGGTNYADSVKGRFTLSRDNAKYTVYLQMNSLKPEDTAVYYCAKEVDHGDASDMDYWGQGTQVTVSS | low polyreactivity
QVQLVESGGGLDQAGGSLRLSCAASGSIFFTYVMGWYRQAPGKERQLVAAISSDDITNYADSVKGRFTISRDNAKNTVYLQMNSLKPEDTAVYYCNADTTLYPYYDYGYYDYDYWGQGTQVTVSS | low polyreactivity
QVQLVESGGGLDQAGGSLRLSCAASGSIFKLNARGWYREAPGKERELVAAITSVGRTYYADSVKGRFTISRDNAKKTVYLQMNSLKPEDTAVYYCGAARYGVYWYGYWGQGTQVTVSS | high polyreactivity
QVQLVESGGGLDQAGGSLRLSCAASGSIFNFYALGWYRQAPGKERELVAAISWSAGSTYYADSVKGRFTISRDYAKNTVYLQMNSLKPEDTAVYYCAADRYAYDWIQYYYHFLYDYWGQGTQVTVSS | low polyreactivity
QVQLVESGGGLDQAGGSLRLSCAASGSIFPFYAMGWYRQAPGKERELVAAISSRGGSTYYADSVKGRFTISRDNAKNTVYLQMNSLKPEDTAVYYCAARDYSIKVRLGYWGQGTHVTVSS | low polyreactivity
QVQLVESGGGLDQAGGSLRLSCAASGSIFSHYAMGWYRQAPGKERELVAAISRSGGSTYYADSVKGRFTISRDNAKNTVYLQMNSLKPDDTAVYYCSKEGDSGYWFDYWGQGTQVTVSS | low polyreactivity
QVQLVESGGGLDQAGGSLRLSCAASGSIFTDNAMGWYRQAPGKERELVASITIAGSTKYADSVKGRFTISRDNAKKTVYLQMNSLKPEDTAVYYCNAEASDLHDYWGQGTQVTVSS | low polyreactivity
QVQLVESGGGLDQAGGSLRLSCAASGSIFVNYARGWYRQAPGKERELVAAITRSGGRTYYADSVKGRFTISRDNAKNTVYLQMNSLKPEVTAVYYCAARRGYAGNRDGYWGQGTQVNVSS | high polyreactivity
QVQLVESGGGLDQAGGSLRLSCAASGSIFVYYAMGWYRHAPGKEMELVAAITSGTSTNYADSVKGRFTISRDNAQNTVYLQMNSLKPEDTAVYYCAADHYYTGTTYNYWGQGNQVTVSS | low polyreactivity
QVQLVESGGGLDQAGGSLRLSCAASGSIFYRNAIGWYRQAPGKDREFVAAITLRGGSTYYADSVKGRFTISRDNAKNTVYLQMNSLKPEDTAVYYCAADLLLYSSQDNDYWGQGTQVTVSS | low polyreactivity
QVQLVESGGGLDQAGGSLRLSCAASGSIFYVNAMGWYRQAPGKERELVAAITSGGSTSYADSVKGRFTISRDNAKNTVYLQMNSLKPEDTAVYYCAADWDYPEQYRVNYEYGYWGLGTQVTVSS | low polyreactivity
QVQLVESGGGLDQAGGSLRLSCAASGSIFYYYVMGWYRQAPGKERELVAAITNSDRTYYADSVKGRFTISRDNAKNTVYLQMNSLKLEDTAVYYCNADWFDQYYRDGLRGRYGYWRQGTQVTVSS | low polyreactivity
QVQLVESGGGLDQAGGSLRLSCAASGSIIGIYAMGWYRQAPGKERELVAAISWSGGSTYYADSVKGRFTISRDNAKNTVYLQMNSLKPEDTAVYYCAARGHYQYYWGQGTQVTVSS | low polyreactivity

From the nanobody polyreactivity screen of Harvey et al. (2022)
